Measurements as given in patent US5792457A, “Antibody recognizing endothelial cell ligand for leukocyte CR3” (priority 1995, dated 1998).

Test: Overlay on thin-layer chromatography plates containing glycolipids
Format: binding
Excerpt: 2) The DNA sequence from nucleotide position 3674 to 4088 (bounded by XhoI sites) which corresponds to the CRD was amplified by the polymerase chain reaction and ligated into one of the pET expression vectors (Rosenberg et al. (1987), Gene 56, 125-135). Expression of the polypeptide in E. coli utilized the T7 RNA polymerase promoter system (Tabor, S. & Richardson, C.C. (1985), Proc. Natl. Acad. Sci. U.S.A. 82). [^35 S] […] Cell lysates containing the expressed protein were overlaid on thin-layer chromatography plates containing glycolipid standards and the binding pattern was compared to that of FHA.

B1: CRD protein: expressed polypeptide of FHA carbohydrate recognition domain, residues 1141-1279, 18kD (protein, UniProt P12255 1141-1279, looked up, fragment)
chain: LEHSTIESKISQSVLAAKGDKGKPAVSVKVAKKLFLNGTLRAVNDNNETMSGRQIDVVDGRPQITDAVTGEARKDESVVSDAALVADGGPIVVEAGELVSHAGGIGNGRNKENGASVTVRTTGNLVNKGYISAGKQGVL
**Q.** For B1, which “binding to lactosylceramides (in words)” value is on record?
**A.** bound to these carbohydrates in a pattern similar to FHA, especially in the ability to bind to lactosylceramides
